Reference: patent US20260275312, “CRISPR NUCLEASE POLYPEPTIDES AND GENE EDITING SYSTEMS COMPRISING SUCH” (ARBOR BIOTECHNOLOGIES, INC., published 2026)

What was measured:
Nuclease W S925R = target: T1, Nuclease W S925R (synthetic construct, S925R); assay: cell_activity; HEK293T; PAM AAA; conditions: tags: N-term SV40 NLS, XTEN linker + C-term nucleoplasmin NLS
T1 chain: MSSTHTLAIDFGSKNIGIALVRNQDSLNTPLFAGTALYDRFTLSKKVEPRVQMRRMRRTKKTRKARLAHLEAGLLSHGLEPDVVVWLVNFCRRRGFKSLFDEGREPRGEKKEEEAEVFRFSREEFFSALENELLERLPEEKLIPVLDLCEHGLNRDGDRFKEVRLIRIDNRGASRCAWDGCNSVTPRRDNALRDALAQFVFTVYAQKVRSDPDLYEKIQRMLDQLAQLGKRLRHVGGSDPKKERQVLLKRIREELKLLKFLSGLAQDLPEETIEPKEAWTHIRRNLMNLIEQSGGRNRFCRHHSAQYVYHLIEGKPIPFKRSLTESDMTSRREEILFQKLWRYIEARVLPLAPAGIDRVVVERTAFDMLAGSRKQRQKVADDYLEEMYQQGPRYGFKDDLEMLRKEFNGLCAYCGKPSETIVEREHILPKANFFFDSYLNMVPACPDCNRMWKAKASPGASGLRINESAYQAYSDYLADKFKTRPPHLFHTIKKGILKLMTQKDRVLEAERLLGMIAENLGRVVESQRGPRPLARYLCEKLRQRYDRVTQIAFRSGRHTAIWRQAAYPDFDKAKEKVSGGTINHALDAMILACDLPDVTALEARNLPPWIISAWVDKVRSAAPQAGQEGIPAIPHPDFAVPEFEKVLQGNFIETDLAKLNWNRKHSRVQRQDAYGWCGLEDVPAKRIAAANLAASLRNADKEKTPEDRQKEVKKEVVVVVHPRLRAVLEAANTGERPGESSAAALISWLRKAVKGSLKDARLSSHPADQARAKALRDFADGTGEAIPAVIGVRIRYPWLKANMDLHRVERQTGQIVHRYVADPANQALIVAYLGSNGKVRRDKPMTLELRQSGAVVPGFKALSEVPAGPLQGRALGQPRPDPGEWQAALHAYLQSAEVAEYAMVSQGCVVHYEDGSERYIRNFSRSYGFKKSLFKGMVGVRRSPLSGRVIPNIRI
Procedure: (§1) Approximately 16 hours prior to transfection, 25,000 HEK293T cells in DMEM/10% FBS+Pen/Strep (D10 media) were plated into each well of a 96-well plate. On the day of transfection, the cells were 50-90% confluent. For each well to be transfected, a mixture of Lipofectamine 2000™ (ThermoFisher Scientific) and Opti-MEM™ (ThermoFisher Scientific) was prepared and incubated at room temperature for 5 minutes (Solution 1). After incubation, the Lipofectamine 2000™:Opti-MEM™ mixture was added to a separate mixture containing the CRISPR nuclease plasmid (NLS-tagged), RNA guide plasmid, and Opti-MEM™ (Solution 2). In the case of negative controls, the CRISPR nuclease plasmid was excluded. Solutions 1 and 2 were mixed by pipetting up and down, then incubated at room temperature for 25 minutes. Following incubation, the Solution 1 and 2 mixture was added dropwise to each well of a 96-well plate containing the cells. Approximately 72 hours post transfection, cells were trypsinized by adding TrypLE™ (Thermo Fisher Scientific) to the center of each well and incubating at 37° C. for approximately 5 minutes. D10 media was then added to each well and mixed to resuspend cells. […]
(§2) Cells were transfected, and samples were prepared for NGS as described in Example 1. Indel ratios, referring to the percentage of NGS reads comprising indels, were calculated for the reference and for each variant. […]

Nuclease W E715R = target: T2, Nuclease W E715R (synthetic construct, E715R); assay: cell_activity; HEK293T; PAM AAA; conditions: tags: N-term SV40 NLS, XTEN linker + C-term nucleoplasmin NLS
T2 chain: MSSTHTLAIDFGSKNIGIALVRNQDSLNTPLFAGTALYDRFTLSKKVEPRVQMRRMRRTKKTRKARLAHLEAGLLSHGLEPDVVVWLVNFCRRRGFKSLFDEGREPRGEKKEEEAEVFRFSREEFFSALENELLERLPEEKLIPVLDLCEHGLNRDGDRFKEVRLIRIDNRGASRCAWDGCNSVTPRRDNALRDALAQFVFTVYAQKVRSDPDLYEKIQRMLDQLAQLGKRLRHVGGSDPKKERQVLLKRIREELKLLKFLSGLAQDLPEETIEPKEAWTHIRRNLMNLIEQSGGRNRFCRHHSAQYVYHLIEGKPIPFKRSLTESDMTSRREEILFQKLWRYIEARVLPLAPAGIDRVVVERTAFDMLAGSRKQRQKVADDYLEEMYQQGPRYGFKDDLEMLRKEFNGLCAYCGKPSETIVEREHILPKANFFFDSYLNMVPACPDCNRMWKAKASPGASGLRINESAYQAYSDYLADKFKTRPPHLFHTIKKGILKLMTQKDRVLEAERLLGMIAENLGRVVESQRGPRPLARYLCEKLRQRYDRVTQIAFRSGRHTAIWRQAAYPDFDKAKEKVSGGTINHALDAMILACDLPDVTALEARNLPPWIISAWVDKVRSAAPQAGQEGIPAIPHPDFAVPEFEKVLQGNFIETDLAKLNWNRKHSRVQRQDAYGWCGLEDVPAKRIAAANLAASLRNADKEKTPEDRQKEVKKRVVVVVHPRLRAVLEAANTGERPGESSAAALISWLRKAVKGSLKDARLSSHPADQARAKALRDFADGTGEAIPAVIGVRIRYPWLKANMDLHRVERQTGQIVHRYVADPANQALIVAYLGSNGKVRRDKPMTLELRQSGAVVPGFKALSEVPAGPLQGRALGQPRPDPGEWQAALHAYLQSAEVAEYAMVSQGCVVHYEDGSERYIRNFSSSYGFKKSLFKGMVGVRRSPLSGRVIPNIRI
Procedure: as §1, §2

B1: W EMX1-T5 RNA guide ; EMX1-T5 target (W) (ssRNA ; dsDNA)
RNA: UAAACUACAGUGGUGCCUGGGUUUCAGCUACCCUGAGUUUCUCAACUCCGUUGAGACUUCCUCAGGUUCAAGCUGAAAAGAGCAUCUGUCCGGAAGGACCACUCCGGGUUAGGGCAGACCCGGCUCUUGGGCUUCCUUGGUCUUUGACUCUGGAGGAAACCUUCCGGCGUGUCGCAAGACAAGAUGUGAGCCUG
DNA 1: TAAACTACAGTGGTGCCTGG
DNA 2: CCAGGCACCACTGTAGTTTA
fold change in indel ratio vs reference (Nuclease W S925R): 3.44 fold indel vs reference
fold change in indel ratio vs reference (Nuclease W E715R): 3.94 fold indel vs reference
